Experimental data taken from patent US20260109776A1 (Amgen, published 2026).

T1: human TNFR2 (human, UniProt P20333 23-461)
T1 construct: whole, on cells
T1 sequence (looked up): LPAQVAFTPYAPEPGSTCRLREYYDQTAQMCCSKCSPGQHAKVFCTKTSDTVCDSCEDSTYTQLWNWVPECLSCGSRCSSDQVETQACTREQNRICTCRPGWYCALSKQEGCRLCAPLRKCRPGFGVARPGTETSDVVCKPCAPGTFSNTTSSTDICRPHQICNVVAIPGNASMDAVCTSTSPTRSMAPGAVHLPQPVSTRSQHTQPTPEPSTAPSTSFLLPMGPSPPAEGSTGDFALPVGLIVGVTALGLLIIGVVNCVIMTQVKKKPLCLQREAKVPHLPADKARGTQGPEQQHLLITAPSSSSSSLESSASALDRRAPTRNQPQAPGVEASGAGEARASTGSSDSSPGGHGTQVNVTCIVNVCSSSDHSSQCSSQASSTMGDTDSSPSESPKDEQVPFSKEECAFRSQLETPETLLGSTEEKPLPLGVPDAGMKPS

T2: mouse CD40 on cells (mouse, UniProt P27512 20-289)
T2 construct: whole, on cells; also called mouse CD40 on HEK293 cells; CD40 on mouse B cells
T2 sequence (looked up): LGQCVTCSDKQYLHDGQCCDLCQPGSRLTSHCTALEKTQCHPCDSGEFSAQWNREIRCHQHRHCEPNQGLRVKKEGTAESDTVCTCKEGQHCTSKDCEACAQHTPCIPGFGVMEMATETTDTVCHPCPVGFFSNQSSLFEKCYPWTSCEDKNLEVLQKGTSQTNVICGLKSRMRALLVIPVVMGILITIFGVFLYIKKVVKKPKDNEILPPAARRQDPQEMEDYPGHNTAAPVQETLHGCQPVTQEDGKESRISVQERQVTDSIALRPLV

T3: cynomolgus monkey CD40 (cynomolgus monkey, UniProt P25942 21-193 (human entry), limits assumed)
T3 chain: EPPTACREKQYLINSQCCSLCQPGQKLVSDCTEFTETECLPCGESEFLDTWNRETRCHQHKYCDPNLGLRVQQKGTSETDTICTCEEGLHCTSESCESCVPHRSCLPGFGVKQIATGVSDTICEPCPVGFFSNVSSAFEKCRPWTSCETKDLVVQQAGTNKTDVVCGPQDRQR


Experiments:
human TNFR2 = biological target: T1, human TNFR2; assay: flow cytometry, HEK293 transfectants vs control cells
How it was run: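 Anti-human CD40 antibodies were tested by flow cytometry for binding to HEK293 cells transiently transfected with human TNFR1, TNFR2, TNFR10, TNFR14, or cynomolgus or mouse CD40. Affinity for human and cynomolgus CD40 was measured by Octet, giving Kon, Kdis and KD.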

mouse CD40 on cells = biological target: T2, mouse CD40 on cells; assay: flow cytometry, HEK293 transfectants
human CD40 on cells [1] = biological target: T4, human CD40 on cells (human, UniProt P25942 21-277); assay: cell-based or functional assay
human CD40 on cells [2] = biological target: T4, human CD40 on cells; assay: flow cytometry, labelled CD40L on CD40-293T cells, antibody at 20 ug/ml
Description: (§1) Percent ligand binding inhibition was calculated as [(CD40L binding gMFI in the absence of anti-CD40)−(CD40L binding gMFI in the presence of anti-CD40)]/(CD40L binding gMFI in the absence of anti-CD40). gMFI: geometric mean fluorescent intensity. All anti-CD40 antibodies show minimal effects on the ability of CD40L to bind to the CD40 receptor (Table 7).

cynomolgus monkey CD40 = biological target: T3, cynomolgus monkey CD40; assay: Octet
Description: (§2) The binding affinity of anti-human CD40 antibodies to human and cynomolgus monkey CD40 was measured by Octet assay (Table 3), quantifying association rate (Kon), disassociation rate (Kdis), and equilibrium binding constant (KD). Cross-reactivity of anti-CD40 antibodies to related TNF receptor superfamily (TNFRSF) members was evaluated by expressing human TNFR1, TNFR2, TNFR10, or TNFR14 on HEK293 cells by transient transfection of expression vectors encoding these genes. Binding of indicated anti-human CD40 antibody to these transfected cells was determined by flow cytometry. […] Cross-reactivity of anti-CD40 antibodies to cynomolgus monkey and mouse CD40 was evaluated by expressing cynomolgus monkey or mouse CD40 on HEK293 cells by transient transfection of expression vectors encoding these genes. Binding of indicated anti-human CD40 antibody to cells overexpressing cynomolgus monkey and mouse CD40 was determined by flow cytometry.

human CD40 = human CD40 (human, UniProt P25942 21-193, limits assumed); assay: Octet
Description: as §2

human CD40 on cells [3] = biological target: T4, human CD40 on cells; assay: flow cytometry, labelled CD40L on CD40-293T cells, antibody at 10 ug/ml
Description: as §1

human CD40 on cells [4] = biological target: T4, human CD40 on cells; assay: flow cytometry, labelled CD40L on CD40-293T cells, antibody at 2.5 ug/ml
Description: as §1

T4 sequence (P25942 21-277 limits assumed): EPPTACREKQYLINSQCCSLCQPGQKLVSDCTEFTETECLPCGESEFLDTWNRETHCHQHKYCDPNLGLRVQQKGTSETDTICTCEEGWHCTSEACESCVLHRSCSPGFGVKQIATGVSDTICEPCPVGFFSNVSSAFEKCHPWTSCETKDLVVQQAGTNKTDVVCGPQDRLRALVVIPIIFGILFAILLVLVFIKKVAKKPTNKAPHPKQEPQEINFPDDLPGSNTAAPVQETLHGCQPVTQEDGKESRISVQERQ
human CD40, sequence (P25942 21-193 limits assumed): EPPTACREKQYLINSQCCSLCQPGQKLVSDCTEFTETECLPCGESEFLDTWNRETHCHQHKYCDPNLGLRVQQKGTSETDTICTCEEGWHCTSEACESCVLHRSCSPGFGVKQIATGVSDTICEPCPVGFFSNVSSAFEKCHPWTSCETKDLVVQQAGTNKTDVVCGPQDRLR

Row | fold over control (gMFI) (human TNFR2) [fold] | binding result (mouse CD40 on cells) | human B cell proliferation, no crosslinking, % Max Activity (human CD40 on cells [1]) [%] | human B cell proliferation, no crosslinking, EC50 (human CD40 on cells [1]) [nM] | human B cell proliferation, with protein G crosslinking, % Max Activity (human CD40 on cells [1]) [%] | human B cell proliferation, with protein G crosslinking, EC50 (human CD40 on cells [1]) [nM] | Ligand Binding Inhibition (%) (human CD40 on cells [2]) | Kd (cynomolgus monkey CD40) [nM] | koff (cynomolgus monkey CD40) [s⁻¹] | kon (cynomolgus monkey CD40) [M⁻¹ s⁻¹] | Kd (human CD40) [nM] | koff (human CD40) [s⁻¹] | kon (human CD40) [M⁻¹ s⁻¹] | Ligand Binding Inhibition (%) (human CD40 on cells [3]) | Ligand Binding Inhibition (%) (human CD40 on cells [4]) | Binder
1 | 0.9 | no binding | 6 | > 16.7 | 70.5 | 0.5 | 3 | 1.72 | 0.00193 | 1.13e+06 | 0.88 | 0.00108 | 1.23e+06 | 14 | 21 | 4G7 (antibody, IgG4, V domains shown, also called 4869-1) VH: QVQLVQSGAEVKKPGASVKVSCKASGYTFAGYYMHWVRQAPGQGLEWMGWINPDSGGTNFAQQFQGRVTMTRDTSISTAYMEVSRLRSDDTAVFYCAREKITMTGIYFDYWGQGTLVTVSS VL: DIQMTQSPSSLSASVGDILTITCRASQNITTYLNWYQQKPGKAPNLLISAASRLRSGVPSRFSGSGSGTDFTLTISSLQPVDFTTFYCQQTFTTPWTFGQGTKVEIKR
2 | 0.92 | no binding | 8.2 | > 16.7 | 81.9 | 0.3 | 1 | 4.02 | 0.00021 | 52200 | 6.87 | 0.000443 | 64500 | 14 | 1 | 36F3 (antibody, IgG4, V domains shown, also called 4891-1) VH: QVQLQQSGPGLVKPSQTLSLTCAISGDSVSSSRTAWNWIRQSPSRGLEWLGRTYYRSKWYHDYSVSVKSRITIDPDTSKNQFSLQLNSVTPEDTAVYYCARGAAPFDYWGQGTLVTVSS VL: EIVLTQSPGTLSLSPGERATLSCRASQSVSSNYLAWYQQKPGQAPRALIYAASNRAAGISDRFSGSGSGTDFTLTISRLEPEDFAVYFCQQYGSSPLTFGGGTKVEIKR
3 | 0.9 | no binding | 6.1 | > 16.7 | 76.6 | 0.21 | 2 | 0.73 | 0.000376 | 518000 | 1.02 | 0.000614 | 599000 | 3 | 7 | 39C2 (antibody, IgG4, V domains shown, also called 4887-1) VH: QVQLVQSGTEVKKPGASVKVSCKASGYTFPGYYMHWVRQAPGQGLEWMGWINPDSGGTKYTQKFQGRVTLTRDASVSTAYIDLNRLRSDDTAVYYCARERCRTTNCYLDYWGQGSLVTVSS VL: QSALTQPASVSGSPGQSITISCTGTSSDVGNYNLVSWYQQHPGKAPKLMIYEVNRRPSGVSNRFSGSKSGNTASLTISGLQAEDEAEYYCCSYAGRDTFVVFGGGTKLTVLG
4 | 0.81 | no binding | 6.5 | > 16.7 | 73.4 | 0.26 | 7 | 1.04 | 0.000577 | 556000 | 1.34 | 0.00068 | 509000 | 11 | -8 | 33H6 (antibody, IgG4, V domains shown, also called 4883-1) VH: QVQLVQSGAEVKKPGASVKVSCKASGYTFPGYYMYWLRQAPGQGLEWMGWINPDSGDTNYAQKFQGRVTMTRDTSISTAFMELSRLRSDDTAVYYCAREKPRYFDSFYYYLMDVWGQGTTVTVSS VL: DIQMTQSPSSLSASVGDRVTITCRAGQNISRHLNWYQQNPGKAPKVLIHPASSLPSGVPSRFSGSGSGTDFSLTISSLQPEDFGTYFCQQSYSTPPTFGGGTKVELKR
5 | 0.87 | no binding | 0.4 | > 16.7 | 80.9 | 0.3 | 12 | 0.73 | 0.000387 | 531000 | 1.1 | 0.000672 | 612000 | 6 | -19 | 37A6 (antibody, IgG4, V domains shown, also called 4865-1) VH: QVQLVESGGGLVKPGGSLRLSCAASEFTFSDYYMSWIRQAPGKGLEWVSYISRSGDTIYYADSVKGRFTISRDNAKNSLYLQMNGLRAEDTAVYYCARDLAAGATGGLDCWGQGTLVTVSS VL: SYELTQPPSVSVSPGQTASITCSGERLGNKYICWYQQKPGQSPVLVIYQDFKRPSGIPERFSGSNSGITATLTISGTQAMDEADYYCQAWDSRTVVFGGGTKLTVLG
6 | 0.88 | no binding | 4.4 | > 16.7 | 65.9 | 0.37 | -7 | 0.39 | 0.000244 | 612000 | 0.41 | 0.000164 | 398000 | 1 | -11 | 29H10 (antibody, V domains shown, also called 4877-1) VH: QVQLVQSGAEVTKPGASVKVSCKASGYTFAGYYMHWVRQAPGQGLEWMGWINPHSGGTNYAQKFQDRVTMTRDTSINTAYMELSRLRSDDTAVYYCARERISMVRGVGHNWFAPWGQGTLVTVSS VL: DIQMTQSPSSLSASVGDRVTITCRASQDISNNLAWFQQKPGKPPKSLMYAASSLHSGVPSTFSGSGSGTDFTFTISSLQPEDFATYYCQQYNSYPLTFGGGTKVEIRR
7 | 0.85 | no binding | 4.4 | > 16.7 | 120 | 0.3 | 8 | 0.62 | 0.000314 | 506000 | 0.55 | 0.00031 | 556000 | 51 | -15 | 35F11 (antibody, IgG4, V domains shown, also called 4868-1) VH: QVQLVESGGGVVQPGRSLRLSCAASGFTLSSYGMHWVRQAPGKGLEWVAVIWYDGSNKYYADSVKGRVTISRDNSKNTLYLQMNSLRAEDTAVYYCTRDGRNYVYFDNWGQGTLVTVSS VL: QSALTQPRSVSGSPGQSVTISCTGTSSDVGGYIFVSWYQQHPGKAPKLMIYDVSKRPSGVPDRFSGSKSVNTASLTISGLQAEDETDYYCCSYAGNYTYVFGTGTKVTVLG
